Assay results reported in IntAct's records for PubMed 23376919.

B1: Interleukin-1 receptor-associated kinase 3 (Mus musculus), Q8K4B2 (parent)
chain: MAGRCGARGALSPQLLLFDLPPALLGELCGILDSCDGPLGWRGLAERLSNSWLDVRHIEKYVNQGKSGTRELLWSWAQKNKTIGDLLEVLQDMGHQRAIHLIINYGVSWTPSVQTHHELPFPSFPPEVKHACRENDPGPLEPANVTVDNVLVPEHNEKGTLQKTPISFQSILEGTKHFHKDFLIGEGEIFEVYRVDIRNQAYAVKLFKQEKKMQLKKHWKRFLSELEVLLLFRHPHILELAAYFTETEKLCLVYPYMSNGTLFDRLQCTNGTTPLSWHVRISVLIGIAKAIQYLHNTQPCAVICGNVSSANILLDDQLQPKLTDFAAAHFRPNLEQQSSTINMTGGGRKHLWYMPEEYIRQGRLSVKTDVYSFGIVIMEVLTGCKVVLDDPKHVQLRDLLMELMEKRGLDSCLSFLDRKIPPCPRNFSAKLFSLAGRCVATKAKLRPTMDEVLSSLESTQPSLYFAEDPPTSLKSFRCPSPLFLDNVPSIPVEDDENQNNHSVPPKEVLGTDRVTQKTPFECSQSEVTFLGLDRNRGNRGSEADCNVPSSSHEECWSPELVAPSQDLSPTVISLGSSWEVPGHSYGSKPMEKRCSSGLFCSEHEQSKKQ
partner: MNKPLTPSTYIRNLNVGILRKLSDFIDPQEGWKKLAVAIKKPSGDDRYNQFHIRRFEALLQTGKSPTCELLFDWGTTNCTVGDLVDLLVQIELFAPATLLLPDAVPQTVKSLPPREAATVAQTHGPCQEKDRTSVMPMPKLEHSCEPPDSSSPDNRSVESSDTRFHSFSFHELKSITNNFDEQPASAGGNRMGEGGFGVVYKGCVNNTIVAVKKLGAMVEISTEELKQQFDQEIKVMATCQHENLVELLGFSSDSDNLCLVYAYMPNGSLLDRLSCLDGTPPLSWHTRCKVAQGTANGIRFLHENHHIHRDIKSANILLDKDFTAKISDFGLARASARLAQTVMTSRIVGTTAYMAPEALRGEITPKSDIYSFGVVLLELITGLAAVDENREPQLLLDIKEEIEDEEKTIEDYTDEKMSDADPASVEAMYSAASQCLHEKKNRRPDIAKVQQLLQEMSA
B2: Interleukin-1 receptor-associated kinase 4 (Mus musculus), Q8R4K2 (parent)
chain: B1 partner
partner: B1 chain
B3: Interleukin-1 receptor-associated kinase 3 (Mus musculus), Q8K4B2 (parent)
chain: B1 chain
partner: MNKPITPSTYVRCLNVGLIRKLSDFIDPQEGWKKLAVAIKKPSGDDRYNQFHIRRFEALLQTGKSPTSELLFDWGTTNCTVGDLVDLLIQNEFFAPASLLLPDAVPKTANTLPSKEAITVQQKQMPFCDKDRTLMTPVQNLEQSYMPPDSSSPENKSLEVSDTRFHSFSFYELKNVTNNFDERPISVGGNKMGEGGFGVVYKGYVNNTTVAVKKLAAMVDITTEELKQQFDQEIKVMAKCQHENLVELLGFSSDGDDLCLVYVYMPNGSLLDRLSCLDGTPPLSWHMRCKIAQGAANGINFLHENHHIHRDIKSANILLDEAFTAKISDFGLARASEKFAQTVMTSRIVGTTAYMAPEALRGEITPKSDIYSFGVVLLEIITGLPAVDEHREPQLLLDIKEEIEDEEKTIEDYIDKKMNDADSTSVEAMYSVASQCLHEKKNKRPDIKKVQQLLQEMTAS

Variants of: B1
Conditions: with irak4_mouse Irak4, Q8R4K2

Variant | effect of a mutation on the interaction
E71A;Q78G | disrupting interaction

Variants of: B1
Conditions: with irak4_mouse Irak4, Q8R4K2
Remark: another data set of the same source

Variant | effect of a mutation on the interaction
Q78G | decreasing interaction

Variants of: B1
Conditions: with irak4_mouse Irak4, Q8R4K2
Remark: another data set of the same source

Variant | effect of a mutation on the interaction
W74A | disrupting interaction

Variants of: B1
Conditions: with irak4_mouse Irak4, Q8R4K2
Remark: another data set of the same source

Variant | effect of a mutation on the interaction
E71A | decreasing interaction

Variants of: B2
Conditions: with irak3_mouse Irak3, Q8K4B2

Variant | effect of a mutation on the interaction
MNKPLTPSTYIRNLNVGILRKLSDDIDPQEGWKKLAVAIKKPSGDDRYNQFHIRRFEALLQTGKSPTCELLFDWGTTNCTVGDLVDLLVQIELFAPATLLLPDAVPQTVKSLPPREAATVAQTHGPCQEKDRTSVMPMPKLEHSCEPPDSSSPDNRSVESSDTRFHSFSFHELKSITNNFDEQPASAGGNRMGEGGFGVVYKGCVNNTIVAVKKLGAMVEISTEELKQQFDQEIKVMATCQHENLVELLGFSSDSDNLCLVYAYMPNGSLLDRLSCLDGTPPLSWHTRCKVAQGTANGIRFLHENHHIHRDIKSANILLDKDFTAKISDFGLARASARLAQTVMTSRIVGTTAYMAPEALRGEITPKSDIYSFGVVLLELITGLAAVDENREPQLLLDIKEEIEDEEKTIEDYTDEKMSDADPASVEAMYSAASQCLHEKKNRRPDIAKVQQLLQEMSA [F25D] | decreasing interaction

Variants of: B3
Conditions: with irak4_human IRAK4, Q9NWZ3

Variant | effect of a mutation on the interaction
E71A;Q78G | decreasing interaction

Variants of: B3
Conditions: with irak4_human IRAK4, Q9NWZ3
Remark: another data set of the same source

Variant | effect of a mutation on the interaction
E71A | decreasing interaction

Variants of: B3
Conditions: with irak4_human IRAK4, Q9NWZ3
Remark: another data set of the same source

Variant | effect of a mutation on the interaction
W74A | disrupting interaction

Variants of: B3
Conditions: with irak4_human IRAK4, Q9NWZ3
Remark: another data set of the same source

Variant | effect of a mutation on the interaction
Q78G | decreasing interaction
